Values belong to the binder of their own block, whether it stands above or below them.
Experiments:
Test in all cases: two-hybrid library CCNG1;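 also: natural log of median RNA to DNA barcode read ratio; higher means stronger binding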
P1bH1 = target: T1, P1bH1
T1 chain: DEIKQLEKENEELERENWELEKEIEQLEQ

P2bH1 = target: T2, P2bH1
T2 chain: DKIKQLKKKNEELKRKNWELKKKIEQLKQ

P3bH1 = target: T3, P3bH1
T3 chain: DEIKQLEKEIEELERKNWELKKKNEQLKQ

P4bH1 = target: T4, P4bH1
T4 chain: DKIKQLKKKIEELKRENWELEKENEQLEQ

P5bH1 = target: T5, P5bH1
T5 chain: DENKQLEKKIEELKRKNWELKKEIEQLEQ

P6bH1 = target: T6, P6bH1
T6 chain: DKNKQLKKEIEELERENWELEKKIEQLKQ

P7bH1 = target: T7, P7bH1
T7 chain: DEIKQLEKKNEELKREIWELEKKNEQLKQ

P8bH1 = target: T8, P8bH1
T8 chain: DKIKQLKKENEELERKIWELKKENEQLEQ

P9bH1 = target: T9, P9bH1
T9 chain: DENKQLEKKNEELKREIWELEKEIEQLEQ

4H1406-bN = target: T10, 4H1406-bN
T10 chain: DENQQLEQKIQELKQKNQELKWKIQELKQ

4H2586-bA = target: T11, 4H2586-bA
T11 chain: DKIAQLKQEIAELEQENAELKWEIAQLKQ

4H3592-bN = target: T12, 4H3592-bN
T12 chain: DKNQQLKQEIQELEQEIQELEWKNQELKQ

4H3601-bN = target: T13, 4H3601-bN
T13 chain: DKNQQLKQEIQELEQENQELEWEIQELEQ

4H3907-bN = target: T14, 4H3907-bN
T14 chain: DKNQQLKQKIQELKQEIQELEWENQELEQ

4H4038-bN = target: T15, 4H4038-bN
T15 chain: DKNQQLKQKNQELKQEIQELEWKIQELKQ

4H477-bN = target: T16, 4H477-bN
T16 chain: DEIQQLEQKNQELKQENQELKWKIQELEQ

4H932-bA = target: T17, 4H932-bA
T17 chain: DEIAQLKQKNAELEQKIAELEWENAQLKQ

4H855-bN = target: T18, 4H855-bN
T18 chain: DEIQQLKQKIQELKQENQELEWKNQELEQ

4H918-bN = target: T19, 4H918-bN
T19 chain: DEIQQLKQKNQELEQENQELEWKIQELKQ

4H953-bN = target: T20, 4H953-bN
T20 chain: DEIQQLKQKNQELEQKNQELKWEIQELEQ

4H968-bN = target: T21, 4H968-bN
T21 chain: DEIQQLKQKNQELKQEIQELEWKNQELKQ

P1A-bN = target: T22, P1A-bN
T22 chain: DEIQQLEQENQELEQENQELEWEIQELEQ

interaction score (P1bH1): -0.717
interaction score (P2bH1): 1.17
interaction score (P3bH1): -1.08
interaction score (P4bH1): -1.38
interaction score (P5bH1): -1.15
interaction score (P6bH1): -1.2
interaction score (P7bH1): -0.809
interaction score (P8bH1): -0.757
interaction score (P9bH1): -0.87
Binder: DEIKQLEKENEELERENWELEKEIEQLEQ [P1bH1]

interaction score (4H1406-bN): -0.553
interaction score (4H2586-bA): 0.875
interaction score (4H3592-bN): 0.142
interaction score (4H3601-bN): 1.53
interaction score (4H3907-bN): 0.347
interaction score (4H4038-bN): -1.69
interaction score (4H477-bN): -2.09
interaction score (4H932-bA): -1.96
Binder: DENQQLEQKIQELKQKNQELKWKIQELKQ [4H1406-bN]

interaction score (4H855-bN): -0.495
interaction score (4H918-bN): -0.862
interaction score (4H953-bN): -0.67
interaction score (4H968-bN): -1.39
interaction score (P1A-bN): -0.584
Binder: DEIQQLKQKIQELKQENQELEWKNQELEQ [4H855-bN]

— article PMC10397247
